{
  "source": "patent US6833192B1",
  "about": "“Encapsulation of crystals via multilayer coatings” (Max-Planck Gesellschaft Zur Forderrung der Wissenschaften …, priority 1999, dated 2004)",
  "key": {"[1]": {"system": "protease (Streptomyces griseus)", "test": "Proteolysis experiment (decrease in catalase enzyme activity on protease incubation)", "format": "biochemical", "conditions": "incubation time of 100 min, 37° C., pH 7; starting activity normalized to 100%", "protocol": "10 mg of protease (Streptomyces griseus; Sigma P6911; activity=5.2 U/mg solid) was dissolved in 500 μl of phosphate buffered saline (PBS, pH 7.0)(100 U/ml) and used as the stock solution. 200 μl samples of the polyelectrolyte-coated catalase and solubilized catalase where separately incubated in a water bath at 37° C. with either 30 μl of the stock protease solution of 30 μl of PBS (control experiment). The starting activity of the catalase for all samples was approximately 12000 U/ml catalase. The starting activities were normalized to 100%. The final protease activity in the sample was […]. Proteolysis of the catalase was determined by measuring the decrease in the catalase enzyme activity. The catalase activity measurements where carried out according to the previously described method (i.e. by spectrophotometric detection (240 nm) of the decomposition of hydrogen peroxide, see Tijsen, Practice and Theory of Enzyme Immunoassays, Elsevier, 8th Impression (1993), pp. 202-203.15). 5 μl samples were diluted and used for the activity measurements."}, "[2]": {"test": "Electrophoretic mobility / Zeta-potential measurement", "format": "physicochemical", "conditions": "water at pH 5; by electrophoretic mobility", "protocol": "Electrophoretic mobilities of the uncoated and polymer-multilayer coated enzyme crystals were measured using a Malvern Zetasizer 4 as described elsewhere (Caruso et al., J. Phys. Chem. B 102, 2011-2116 (1998); Sukhorukov, G. B. et al., Polym. Adv. Technol. 9, 759-767 (1998); Donath et al., Angew. Chem. Int. Ed. 37, 2201-2205 (1998). The mobility u was converted into a ξ-potential using the Smoluchowski relation ξ=uη/ε, where η and ε are the viscosity and permittivity of the solution, respectively. Atomic force microscopy (AFM) images were obtained using a Digital Instruments Nanoscope IIIa AFM in tapping mode (TM) on samples deposited onto cleaned glass slides and air-dried. Samples for transmission electron microscopy (TEM) were prepared by deposition of aqueous solutions of the hollow polymer capsules upon a carbon-coated copper grid, allowing them to air dry for one minute, and then blotting off the extra solution."}, "[3]": {"test": "Determination of catalase activity (decomposition of H2O2 at 240 nm)", "format": "biochemical", "conditions": "after solubilization and release from the polymer capsules; uncoated catalase measured the same way for comparison", "protocol": "The enzyme was released from the polymer capsules by exposure to ultrasound for 5 min at 20° C. in 1 M phosphate buffer at pH 7 (this caused rupturing of the polymer walls). The catalase activity was determined using a standard enzyme activity assay (Biochemica Information, 15-16 Boehringer Mannheim (1987); Tijsen, Practice and Theory of Enzyme Immunoassays, 8th Impression (1993), Elsevier, 202-203): that is, by measuring the decomposition of the substrate hydrogen peroxide (H2O2) at 240 nm. The concentration of the catalase was determined spectrophotometrically at 280 nm and 405 nm (soret band). The specific acitvity of the uncoated catalase was measured in the same way and used for comparison."}},
  "data": [
    {"molecule": "catalase (protein, UniProt P00432 2-527, looked up, crystals, catalase enzyme crystals (Sigma, C-100), uncoated template and comparison) Catalase: ADNRDPASDQMKHWKEQRAAQKPDVLTTGGGNPVGDKLNSLTVGPRGPLLVQDVVFTDEMAHFDRERIPERVVHAKGAGAFGYFEVTHDITRYSKAKVFEHIGKRTPIAVRFSTVAGESGSADTVRDPRGFAVKFYTEDGNWDLVGNNTPIFFIRDALLFPSFIHSQKRNPQTHLKDPDMVWDFWSLRPESLHQVSFLFSDRGIPDGHRHMNGYGSHTFKLVNANGEAVYCKFHYKTDQGIKNLSVEDAARLAHEDPDYGLRDLFNAIATGNYPSWTLYIQVMTFSEAEIFPFNPFDLTKVWPHGDYPLIPVGKLVLNRNPVNYFAEVEQLAFDPSNMPPGIEPSPDKMLQGRLFAYPDTHRHRLGPNYLQIPVNCPYRARVANYQRDGPMCMMDNQGGAPNYYPNSFSAPEHQPSALEHRTHFSGDVQRFNSANDDNVTQVRTFYLKVLNEEQRKRLCENIAGHLKDAQLFIQKKAVKNFSDVHPEYGSRIQALLDKYNEEKPKNAVHTYVQHGSHLSAREKANL", "values": [
      {"measurement": "inactivation by protease", "setting": "[1]", "value": "> 90", "unit": "%"},
      {"measurement": "Zeta potential (surface charge)", "setting": "[2]", "value": "+20 mV"},
      {"measurement": "recovered specific activity", "setting": "[3]", "value": 100, "unit": "%"}
    ]}
  ]
}
